The values that follow come from patent publication US20180250335.

Holding throughout (assay): cell_activity
Data set [1] relates to TALEN 1L2 (TAPBP exon 2 left arm) (synthetic construct). The conditions noted are these: as pair 1L2*1R2 in hESCs, puromycin selection; one or two alleles.
The test system of data set [2] is TALEN 2R1 (TAP1 exon 1 right arm) (synthetic construct). The conditions noted are these: as pair 2L3*2R1 in hESCs, puromycin selection; SEQ 24 in the listing is printed reversed.
The subject of data set [3] is TALEN 2L3 (TAP1 exon 1 left arm) (synthetic construct). Conditions: as pair 2L3*2R1 in hESCs, puromycin selection; one or two alleles.
Data set [4] concerns TALEN 1R2 (TAPBP exon 2 right arm) (synthetic construct). Conditions: as pair 1L2*1R2 in hESCs, puromycin selection; SEQ 28 in the listing is printed reversed.

In data set [1], “GATCGAGTGTTGGTT (double strand) [TAPBP exon 2 left half-site]” registered an activity (% clones targeted) of 33.3.

For “GGCAAGTCCCGGCAGGG (double strand) [TAP1 exon 1 right half-site]”, the activity (% clones targeted) in data set [2] was determined as 27.1.

Turning to “TGAAGCCATTAGCTG (double strand) [TAP1 exon 1 left half-site]”, the activity (% clones targeted) in data set [3] was found to be 27.1.

Turning to “CTCTTGGCCAGGCCCTTT (double strand) [TAPBP exon 2 right half-site]”, the activity (% clones targeted) in data set [4] is 33.3.
